Reference: patent US20190276542A1 (QILU PUGET SOUND BIOTHERAPEUTICS, published 2019)

Columns and labels:
[1] = target: T1, human PD1 expressed on a cell surface (human, UniProt Q15116 25-288); assay: flow cytometry on OKT3-activated human T cells, CD4- cells
T1 construct: whole, on cells; also called hPD1
Protocol: (§1) The following experiment tested whether the selected anti-hPD1 antibodies can bind to native PD1 expressed on the surface of activated T cells. Human PBMCs were pre-activated with OKT3 (an anti-CD3 antibody) at a concentration of 1 μg/ml. After three days, the PBMCs, which were mostly activated T cells at this time, were distributed into a 96 well microtiter plate using 0.1×10⁶ cells/well. […] The antibody bound to CD4⁺ T cells and CD4⁻ T cells (which were predominately CD8⁺ T cells) was detected using anti-hlgG-FITC and an anti-CD4 antibody labeled with allophycocyanin (anti-CD4-APC).
(§2) The samples were analyzed by flow cytometry (FACScalibur, BD), and binding was reported as an MFI. EC₅₀'s for binding were calculated using GraphPad Prism software.

[2] = target: T1, human PD1 expressed on a cell surface; assay: flow cytometry on OKT3-activated human T cells, CD4+ cells
Protocol: as §1, §2

[3] = target: T1, human PD1 expressed on a cell surface; assay: cell-based or functional assay
[4] = target: T2, human CTLA4 expressed on Jurkat T cells (human, UniProt P16410 36-223); assay: cell-based or functional assay
T2 sequence (P16410 36-223): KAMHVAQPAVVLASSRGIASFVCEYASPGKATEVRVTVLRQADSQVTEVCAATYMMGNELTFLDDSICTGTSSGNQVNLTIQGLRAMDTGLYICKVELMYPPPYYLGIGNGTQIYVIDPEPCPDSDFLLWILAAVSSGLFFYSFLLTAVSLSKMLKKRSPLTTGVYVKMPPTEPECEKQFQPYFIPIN

[5] = target: T2, human CTLA4 expressed on Jurkat T cells; assay: flow cytometry on Jurkat T cells expressing hCTLA4
Excerpt: After washing, the surface-bound anti-hCTLA4 antibodies were detected with a polyclonal anti-hlgG (Fc-specific) antibody labeled with fluorescein isothiocyanate (FITC)(anti-hlgG-FITC). Binding of anti-hCTLA4 antibodies were detected by flow cytometric analysis. The results were reported a geometric mean fluorescence intensity (MFI) using FlowJo software (FLOWJO, L.L.C., Ashland, Oreg., USA).

[6] = target: T3, CTLA4-ECD_Fc, soluble hCTLA4 comprising the extracellular domain of hCTLA4 fused to an Fc fragment (human, UniProt P16410 36-161); assay: flow cytometry; inhibition of CTLA4-ECD_Fc binding to Raji cells (hB7-1/hB7-2)
T3 construct: extracellular domain; not shown: Fc fragment
T3 sequence (P16410 36-161): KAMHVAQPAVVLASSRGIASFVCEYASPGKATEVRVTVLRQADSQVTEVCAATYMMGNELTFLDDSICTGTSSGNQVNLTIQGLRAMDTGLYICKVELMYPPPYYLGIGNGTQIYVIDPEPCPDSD
Protocol: In a first assay, inhibition of hCTLA4 binding to hB7-1 and hB7-2 expressed on the surface of Raji cells was assessed. Raji cells, which are human cells, express high levels of hB7-1 and hB7-2. […] After 30 minutes, 1×10⁵ Raji cells were added to each well and incubated for another 30 minutes. […] IC₅₀'s were calculated using GraphPad Prism software (GraphPad, Inc., La Jolla, Calif., USA).

T1 sequence (Q15116 25-288): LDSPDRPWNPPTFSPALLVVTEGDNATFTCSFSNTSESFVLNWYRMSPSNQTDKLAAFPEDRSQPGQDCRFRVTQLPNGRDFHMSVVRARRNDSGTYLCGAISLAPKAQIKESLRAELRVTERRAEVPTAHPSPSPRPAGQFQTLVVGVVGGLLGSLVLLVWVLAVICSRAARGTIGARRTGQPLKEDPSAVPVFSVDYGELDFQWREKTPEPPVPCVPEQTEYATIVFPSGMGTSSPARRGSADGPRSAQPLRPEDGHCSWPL

EC50 [1]	EC50 [2]	IC50, luciferase (RLU), PD1 dual cell reporter assay (Jurkat cells with hPD1 plus CHO-K1 cells with hPDL1) [3]	IC50, luciferase (RLU), CTLA4 Dual-Cell Reporter Assay (Jurkat cells with hCTLA4 plus Raji cells) [4]	EC50 [5]	IC50 [6]	Binder
0.617 nM	0.667 nM	3.85 nM				anti-hPD1 antibody #6 (antibody, human IgG4, V domains shown, also called Anti-hPD1 #6; Anti-PD1 #6) VH: QVQLVQSGAEVKKPGASVKVSCKASGYTFTNYWIHWVRQAPGQGLEWMGEIDPYDSYTNYNQKFKGRVTMTGDTSTSTVYMELSSLTSEDTAVYYCARPGYTYGGMDFWGQGTLVTVSS VL: DIQMTQSPSSLSASVGDRVTITCRSSQSLFNSGNQKNYLAWYQQKPGKPPKLLIYGASTRESGVPARFSGSGSGTDFTLTISSLQPEDVATYYCQNDHYYPYTFGGGTKVEIK
0.904 nM	0.647 nM					anti-hPD1 antibody #8 (antibody, human IgG4, V domains shown, also called Anti-hPD1 #8) VH: QVQLVQSGAEVKKPGASVKVSCKASGYTFTNYWIHWVRQAPGQGLEWMGEIDPYDSYTNYNQKFKGRVTMTIDTSTSTVYMELSSLRSEDTAVYYCARPGNTYGGMDFWGQGTLVTVSS VL: DIVMTQSPDSLAVSLGERATINCKSSQSLFISGNQKNYLAWYQQKPGQPPKLLIYGASTRDSGVPDRFSGSGSGTDFTLTISSLQAEDVAVYYCQNNHYYPYTFGGGTKVEIK
0.627 nM	0.72 nM					anti-hPD1 antibody #15 (antibody, human IgG4, V domains shown, also called Anti-hPD1 #15) VH: QVQLVQSGAEVKKPGASVKVSCKASGYTFTNYWMHWVRQAPGQGLEWMGEIDPYDSYTNYNQKFKGRVTMTRDTSTNTVYMELSSLRSEDTAVYYCARPGLTYGGMDFWGQGTLVTVSS VL: DIQMTQSPSSLSASVGDRVTITCRSSQSLFNSGNQKNYLAWYQQKPGKPPKLLIYGASTRESGVPYRFSGSGSGTDFTLTISSLQPEDVATYYCQNDHYYPYTFGGGTKVEIK
1.16 nM	0.849 nM					anti-hPD1 antibody #12 (antibody, human IgG4, V domains shown, also called Anti-hPD1 #12) VH: QVQLVQSGAEVKKPGASVKVSCKASGYTFTNYWMHWVRQAPGQGLEWMGEIDPFDSYTNYNQKFKGRVTMTIDTSTNTVYMELSSLRSEDTAVYYCARPGFTYGGMDFWGQGTLVTVSS VL: DIVMTQSPDSLAVSLGERATISCRSSQSLLISGNQKNYLAWYQQKPGQPPKLLIYGASTRDSGVPDRFSGSGSGTDFTLTISSLQAEDVAVYYCQNNHYYPYTFGGGTKVEIK
24.7 nM	33.7 nM					anti-hPD1 antibody #11 (antibody, human IgG4, V domains shown, also called Anti-hPD1 #11) VH: QVQLVQSGAEVKKPGASVKVSCKASGYTFTSYWIHWVRQAPGQGLEWMGEIDPSDSYTNYNQKFKGRVTMTGDTSTNTVYMELSSLTSEDTAVYYCARPGYTYGGMDFWGQGTLVTVSS VL: DIVMTQSPDSLAVSLGERATISCRSSQSLFISGNQKNYLAWYQQKPGQPPKLLIYGASTRDSGVPDRFSGSGSGTDFTLTISSLQAEDVAVYYCQNNHYYPYTFGGGTKVEIK
1.46 nM	0.998 nM					anti-hPD1 antibody #13 (antibody, human IgG4, V domains shown, also called Anti-hPD1 #13) VH: QVQLVQSGAEVKKPGASVKVSCKASGYTFTSYWIHWVRQAPGQGLEWMGEIDPYDSYTNYNQKFKGRVTMTVDKSTNTVYMELSSLTSEDTAVYYCARPGLTYGGMDFWGQGTLVTVSS VL: DIQMTQSPSSLSASVGDRVTITCKSSQSLLNSGNQKNYLAWYQQKPGKPPKLLIYGASTRDSGVPAKFSGSGSGTDFTLTISSLQPEDVATYYCQNDHYYPYTFGGGTKVEIK
			20.5 nM	0.276 nM	9.1 nM	anti-hCTLA4 antibody 2F1 (antibody, human IgG1, V domains shown) VH: QVQLVESGGGVVEPGRSLRLSCAASGFTFSSYGMHWVRQAPGKGLEWVAVIWYHRSEKDYADSAKGRFTISRDNSKNTLYLQMNSLRAEDTAVYYCARAGLLGYFDYWGQGTLVTVSS VL: EIVLTQSPGTLSLSPGERATLSCRASQSINSYLAWYQQKPGQAPRPLIYGVSSRATGIPDRFSGSGSGTDFTLTISRLEPEDFAVYYCQQYGMYPFTFGPGTKVDIK
			30 nM	0.437 nM	14.1 nM	anti-hCTLA4 antibody 6E3 (antibody, human IgG1, V domains shown) VH: QVQLVESGGGVVEPGRSLRLSCAASGFTFSSYGMHWVRQAPGKGLEWVAVIWYKTSEKDYADSAKGRFTISRDNSKNTLYLQMNSLRAEDTAVYYCARAGLLGYFDYWGQGTLVTVSS VL: EIVLTQSPGTLSLSPGERATLSCRASQSVTSYLAWYQQKPGQAPRPLIYGVSSRATGIPDRFSGSGSGTDFTLTISRLEPEDFAVYYCQQYGMSPFTFGPGTKVDIK
			19 nM	0.384 nM	3.8 nM	anti-hCTLA4 antibody 8B4 (antibody, human IgG1, V domains shown) VH: QVQLVESGGGVVEPGRSLRLSCAASGFTFSSYGMHWVRQAPGKGLEWVAVIWYQPSEKDYADSAKGRFTISRDNSKNTLYLQMNSLRAEDTAVYYCARAGFLGYFDYWGQGTLVTVSS VL: EIVLTQSPGTLSLSPGERATLSCRASQSVNSYLAWYQQKPGQAPRPLIYGVSSRATGIPDRFSGSGSGTDFTLTISRLEPEDFAVYYCQQYGMYPFTFGPGTKVDIK
			25.3 nM	0.473 nM	15.7 nM	anti-hCTLA4 antibody 9C4 (antibody, human IgG1, V domains shown) VH: QVQLVESGGGVVEPGRSLRLSCAASGFTFSSYGMHWVRQAPGKGLEWVAVIWYKSSEKDYADSAKGRFTISRDNSKNTLYLQMNSLRAEDTAVYYCARAGLLGYFDYWGQGTLVTVSS VL: EIVLTQSPGTLSLSPGERATLSCRASQSLNSYLAWYQQKPGQAPRPLIYGVSSRATGIPDRFSGSGSGTDFTLTISRLEPEDFAVYYCQQYGIYPFTFGPGTKVDIK
			73.8 nM	0.189 nM	8.2 nM	anti-hCTLA4 antibody 4H1 (antibody, human IgG1, V domains shown) VH: QVQLVESGGGVVEPGRSLRLSCTASGFTFSSYGMHWVRQAPGKGLEWVAVIWYNPSKKDYADSAKGRFTISRDNSKNTLYLQMNSLRAEDTAVYYCARGGLFGYFDYWGQGTLVTVSS VL: EIVLTQSPGTLSLSPGERATLSCRASQSVSSYLAWYQQKPGQAPRPLIYGVSSRATGIPDRFSGSGSGTDFTLTISRLEPEDFAVYYCQQYGMYPFTFGPGTKVDIK
			> 340 nM	3.1 nM	3.5 nM	anti-hCTLA4 antibody 3G1 (antibody, human IgG1, V domains shown) VH: QVQLVESGGGVVEPGRSLRLSCTASGFTFSSYGMHWVRQAPGKGLEWVAVIWYKSSEKYYADSAKGRFTISRDNSKNTLYLQMNSLRAEDTAVYYCARGGLLGYFDYWGQGTLVTVSS VL: EIVLTQSPGTLSLSPGERATLSCRASQSINSYLAWYQQKPGQAPRPLIYGVSSRATGIPDRFSGSGSGTDFTLTISRLEPEDFAVYYCQQYGMYPFTFGPGTKVDIK
			28.2 nM	0.697 nM	6.3 nM	anti-hCTLA4 antibody 1E1 (antibody, human IgG1, V domains shown) VH: QVQLVESGGGVVEPGRSLRLSCAASGFTFSSYGMHWVRQAPGKGLEWVAVIWYNPSEKDYADSAKGRFTISRDNSKNTLYLQMNSLRAEDTAVYYCARAGLLGYFDYWGQGTLVTVSS VL: EIVLTQSPGTLSLSPGERATLSCRASQSISSYLAWYQQKPGQAPRPLIYGVSSRATGIPDRFSGSGSGTDFTLTISRLEPEDFAVYYCQQYGMSPFTFGPGTKVDIK
			13.9 nM	0.15 nM	3.5 nM	anti-hCTLA4 antibody 12G4 (antibody, human IgG1, V domains shown) VH: QVQLVESGGGVVEPGRSLRLSCAASGFTFSSYGMHWVRQAPGKGLEWVAVIWYNTSKKDYADSAKGRFTISRDNSKNTLYLQMNSLRAEDTAVYYCARGGLLGYFDYWGQGTLVTVSS VL: EIVLTQSPGTLSLSPGERATLSCRASQSITSYLAWYQQKPGQAPRPLIYGVSSRATGIPDRFSGSGSGTDFTLTISRLEPEDFAVYYCQQYGRYPFTFGPGTKVDIK
			10.9 nM	0.217 nM	19.8 nM	anti-hCTLA4 antibody 7A4 (antibody, human IgG1, V domains shown) VH: QVQLVESGGGVVEPGRSLRLSCTASGFTFSSYGMHWVRQAPGKGLEWVAVIWYQTSEKDYADSAKGRFTISRDNSKNTLYLQMNSLRAEDTAVYYCARAGLLGYFDYWGQGTLVTVSS VL: EIVLTQSPGTLSLSPGERATLSCRASQSVSSYLAWYQQKPGQAPRPLIYGVSSRATGIPDRFSGSGSGTDFTLTISRLEPEDFAVYYCQQYGMYPFTFGPGTKVDIK
			> 340 nM	2.93 nM	11.5 nM	anti-hCTLA4 antibody 5B2 (antibody, human IgG1, V domains shown) VH: QVQLVESGGGVVEPGRSLRLSCTASGFTFSSYGMHWVRQAPGKGLEWVAVIWYKSSEKDYADSAKGRFTISRDNSKNTLYLQMNSLRAEDTAVYYCARAGLLGYFDYWGQGTLVTVSS VL: EIVLTQSPGTLSLSPGERATLSCRASQSLSSYLAWYQQKPGQAPRLLIYGVSSRATGIPDRFSGSGSGTDFTLTISRLEPEDFAVYYCQQYGMYPFTFGPGTKVDIK
